# Patent US11653679B2, “High-purity steviol glycosides” (PureCircle Sdn Bhd, priority 2014, dated 2023)
# B1: gi222619587_EEE55719.1: hypothetical protein OsJ_04191 [Oryza sativa Japonica Group], SEQ ID NO:6 (protein, listed as Oryza sativa)
# chain: MHVVMLPWLAFGHILPFAEFAKRVARQGHRVTLFSTPRNTRRLIDVPPSLAGRIRVVDIPLPRVEHLPEHAEATIDLPSNDLRPYLRRAYDEAFSRELSRLLQETGPSRPDWVLADYAAYWAPAAASRHGVPCAFLSLFGAAALCFFGPAETLQGRGPYAKTEPAHLTAVPEYVPFPTTVAFRGNEARELFKPSLIPDESGVSESYRFSQSIEGCQLVAVRSNQEFEPEWLELLGELYQKPVIPIGMFPPPPPQDVAGHEETLRWLDRQEPNSVVYAAFGSEVKLTAEQLQRIALGLEASELPFIWAFRAPPDAGDGDGLPGGFKERVNGRGVVCRGWVPQVKFLAHASVGGFLTHAGWNSIAEGLANGVRLVLLPLMFEQGLNARQLAEKKVAVEVARDEDDGSFAANDIVDALRRVMVGEEGDEFGVKVKELAKVFGDDEVNDRYVRDFLKCLSEYKMQRQG
# B2: Example 12: UGT76G1 lysate prepared by pCOLDIII plasmid and Origami2 (DE3) expression strain (protein, UniProt Q6VAB4 1-458, looked up)
# UDP-glycosyltransferase 76G1: MENKTETTVRRRRRIILFPVPFQGHINPILQLANVLYSKGFSITIFHTNFNKPKTSNYPHFTFRFILDNDPQDERISNLPTHGPLAGMRIPIINEHGADELRRELELLMLASEEDEEVSCLITDALWYFAQSVADSLNLRRLVLMTSSLFNFHAHVSLPQFDELGYLDPDDKTRLEEQASGFPMLKVKDIKSAYSNWQILKEILGKMIKQTKASSGVIWNSFKELEESELETVIREIPAPSFLIPLPKHLTASSSSLLDHDRTVFQWLDQQPPSSVLYVSFGSTSEVDEKDFLEIARGLVDSKQSFLWVVRPGFVKGSTWVEPLPDGFLGERGRIVKWVPQQEVLAHGAIGAFWTHSGWNSTLESVCEGVPMIFSDFGLDQPLNARYMSDVLKVGVYLENGWERGEIANAIRRVMVDEEGEYIRQNARVLKQKADVSLMKGGSSYESLESLVSYISSL
# modifications: E. coli lysate, pCOLDIII
# notes: UGT76G1 lysate prepared by pCOLDIII plasmid and Origami2 (DE3) expression strain
# B3: Example 9: UGT76G1 lysate prepared by pMAL plasmid and BL21 expression strain (protein, UniProt Q6VAB4 1-458, looked up)
# UDP-glycosyltransferase 76G1: B2 UDP-glycosyltransferase 76G1
# modifications: E. coli lysate, pMAL vector
# notes: UGT76G1 lysate prepared by pMAL plasmid and BL21 expression strain
# B4: Example 8: UGT76G1 lysate prepared by pET30a+ plasmid and Tuner (DE3) expression strain (protein, UniProt Q6VAB4 1-458, looked up)
# UDP-glycosyltransferase 76G1: B2 UDP-glycosyltransferase 76G1
# modifications: E. coli Tuner (DE3) lysate, pET30a+
# notes: UGT76G1 lysate prepared by pET30a+ plasmid and Tuner (DE3) expression strain
# B5: Example 11: UGT76G1 lysate prepared by pCOLDIII plasmid and ArcticExpress expression strain (protein, UniProt Q6VAB4 1-458, looked up)
# UDP-glycosyltransferase 76G1: B2 UDP-glycosyltransferase 76G1
# modifications: E. coli ArcticExpress lysate, pCOLDIII
# notes: UGT76G1 lysate prepared by pCOLDIII plasmid and ArcticExpress expression strain
# B6: Example 7: UGT76G1 lysate prepared by pET30a+ plasmid and BL21 (DE3) expression strain (protein, UniProt Q6VAB4 1-458, looked up)
# UDP-glycosyltransferase 76G1: B2 UDP-glycosyltransferase 76G1
# modifications: E. coli lysate, pET30a+
# notes: UGT76G1 lysate prepared by pET30a+ plasmid and BL21 (DE3) expression strain
# B7: Example 10: UGT76G1 lysate prepared by pMAL plasmid and ArcticExpress expression strain (protein, UniProt Q6VAB4 1-458, looked up)
# UDP-glycosyltransferase 76G1: B2 UDP-glycosyltransferase 76G1
# modifications: E. coli lysate, pMAL
# notes: UGT76G1 lysate prepared by pMAL plasmid and ArcticExpress expression strain
# B8: gi297795735_XP_002865752.1: UDP-glucoronosyl/UDP-glucosyl transferase family protein [Arabidopsis lyrata subsp. lyrata], SEQ ID NO:7 (protein, listed as Arabidopsis lyrata)
# chain: MDDKKEEVMHIAMFPWLAMGHLLPFLRLSKLLAQKGHKISFISTPRNILRLPKLPSNLSSSITFVSFPLPSISGLPPSSESSMDVPYNKQQSLKAAFDLLQPPLTEFLRLSSPDWIIYDYASHWLPSIAKELGISKAFFSLFNAATLCFMGPSSSLIEESRSTPEDFTVVPPWVPFKSTIVFRYHEVSRYVEKTDEDVTGVSDSVRFGYTIDGSDAVFVRSCPEFEPEWFSLLQDLYRKPVFPIGFLPPVIEDDDDDTTWVRIKEWLDKQRVNSVVYVSLGTEASLRREELTELALGLEKSETPFFWVLRNEPQIPDGFEERVKGRGMVHVGWVPQVKILSHESVGGFLTHCGWNSVVEGIGFGKVPIFLPVLNEQGLNTRLLQGKGLGVEVLRDERDGSFGSDSVADSVRLVMIDDAGEEIREKVKLMKGLFGNMDENIRYVDELVGFMRNDESSQLKEEEEEDDCSDDQSSEVSSETDEKELNLDLKEEKRRISVYKSLSSEFDDYVANEKMG
# How the values were obtained:
# Type in all cases: biochemical
# [1] = Catalytic test Rebaudioside A to Rebaudioside D with in-vitro expressed UDP-glucosyltransferases (Examples 20, 21), HPLC; settings: for Steviol glycoside conversion in reaction mixture, Reb A / Steviol glycoside conversion in reaction mixture, Reb D / Steviol glycoside conversion in reaction mixture, Reb UNK (later identified as reb D2): 0.5 mM Rebaudioside A, 30° C., HPLC; for Conversion RebA to RebD: in-vitro expressed enzyme
# Description: The prepared expression medium mix was added to the plasmid solution and the solution was allowed to incubate at 30° C. for 3 hours while mixing the mixture every 45 minutes. 5 μL of the mixture was frozen whereas the remainder was used for the catalytic test for the conversion of Rebaudioside A to Rebaudioside D.
# (§1) 430 μL of a reaction mixture containing 0.5 mM Rebaudioside A, 3 mM MgCl2, 50 mM phosphate buffer (pH7.2) and 2.5 mM UDP-glucose was added to a 1.5 mL sterile microtube. 52 μl of the enzyme expression medium was added and the resulting mixture was allowed to react at 30° C. for 24 hours. 125 μL samples were taken after 2 hours, 16 hours and 24 hours and added to a 115 μL of 60% methanol and 10 μL of 2 N H2SO4. The quenched sample was centrifuged at 18,000 g for 2 minutes at RT. 200 μL was transferred to an HPLC vial and analyzed.
# The HPLC assay was performed as follows:
# as §1, with “μL” for “μl”, “to” for “to an”
# (§2) The HPLC assay was performed as described in EXAMPLE 20.
# [2] = Activity of in-vivo produced enzymes for transformation of Rebaudioside A (Example 22); settings: for Conversion after 45 hrs.: 0.5 mM, in-vivo produced enzyme lysate; for Reb D selectivity: after 45 hrs.
# Description: Activity tests were performed at 5 mL scale with 1,000 μL of thawed lysate for the transformation of Rebaudioside A using 0.5 mM of substrate, 2.5 mM of UDP-Glucose and 3 mM MgCl2 in 50 mM Sodium Phosphate buffer at pH 7.2. Samples were taken and analyzed by HPLC.
# as §2
# [3] = Transformation of Stevioside to Rebaudioside A with UGT76G1 lysate (Examples 4, 13), HPLC; settings: per mL of lysate; 1 U transforms 1 μmol in 1 hour at 30° C. and pH 7.2
# Description: The total volume of the reaction was 5.0 mL with the following composition: 50 mM sodium phosphate buffer pH 7.2, 3 mM MgCl2, 2.5 mM UDP-glucose, 0.5 mM Stevioside and 500 μl, of UGT76G1 thawed lysate. The reactions were run at 30° C. on an orbitary shaker at 135 rpm. For each sample, 460 μL of the reaction mixture was quenched with 40 μL of 2N H2SO4 and 420 μL of methanol/water (6/4). The samples were immediately centrifuged and kept at 10° C. before analysis by HPLC (CAD).
# (§3) Activity tests were performed on a 5 mL scale with 500 μL of thawed lysate for the transformation of Stevioside to Rebaudioside A and Rebaudioside D to Rebaudioside M using 0.5 mM of substrate, 2.5 mM of UDP-Glucose and 3 mM MgCl2 in 50 mM Sodium Phosphate buffer at pH 7.2. Samples were taken and analyzed by HPLC.
# [4] = Transformation of Rebaudioside D to Rebaudioside M with UGT76G1 (Examples 6, 13), HPLC; settings: per mL of lysate; 1 U transforms 1 μmol in 1 hour at 30° C. and pH 7.2
# Description: The total volume of the reaction was 2 mL with the following composition: 50 mM sodium phosphate buffer pH 7.2, 3 mM MgCl2, 3.8 mM UDP-glucose, 0.5 mM Rebaudioside D and 180 μL of in-vitro produced UGT76G1. The reactions were run at 30° C. on an orbitary shaker at 135 rpm. For each sample, 400 μL of reaction mixture was quenched with 40 μL of 2N H2SO4 and 360 μL of 60% MeOH. After centrifugation, the supernatant was analyzed by HPLC (CAD).
# as §3
Reb D selectivity [2],Molecule,"Steviol glycoside conversion in reaction mixture, Reb A [1] [% area]","Steviol glycoside conversion in reaction mixture, Reb D [1] [% area]","Steviol glycoside conversion in reaction mixture, Reb UNK (later identified as reb D2) [1] [% area]",Conversion RebA to RebD [1],Conversion after 45 hrs. [2] [%],Transformation activity Stevioside to Rebaudioside A [3] [U mL^−1],Transformation activity Rebaudioside D to Rebaudioside M [4] [U mL^−1]
Reb D Not detected,B1,92.8,0.14,7.0,Active,2.9,–,–
–,B2,–,–,–,–,–,37,0.20
–,B3,–,–,–,–,–,20,0.15
–,B4,–,–,–,–,–,33,0.40
–,B5,–,–,–,–,–,15,0.11
–,B6,–,–,–,–,–,29,0.31
–,B7,–,–,–,–,–,15,0.25
Reb D Not detected,B8,95.8,0.28,3.9,Active,0.0,–,–
